Values belong to the molecule of their own block, whether it stands above or below them.
Target: T1, SLC41A1 (Homo sapiens, UniProt Q8IVJ1)
T1 construct: split-ubiquitin half (bait fusion); expressed in transfected cells
Assay: Split-ubiquitin screen for SLC41A1 complex-forming partners
Assay type: binding
Conditions: for occurrence: frequency of occurrence = number of clones that revealed interaction with SLC41A1
Text: These SLC41A1 complex-forming partners were screened out by the split-ubiquitin method, which is well known in the art and are listed in detail in Table 1. The ubiquitin-based split protein sensor (USPS) is the method that makes it possible to detect and monitor protein-protein interactions as a function of time, at the natural sites of these interactions in a living cell. Details on the method can be found in Johnsson and Varshaysky, 1994.
In order to shorten the table, multiple entries were deleted and only the frequency of occurrence (Occurrence) is indicated as a number. The singletons listed in Table 2 are the weakest partners. They are organized from the strongest to the weakest.
In the above tables 1 and 2 underlined names indicate highly connected proteins, found in the majority of DUALmembrane SU-YTH screens. Highly connected proteins include chaperones, stress-induced endoplasmatic reticulum proteins, components of the translocon machinery and proteins involved in membrane protein sorting and transport.

T1 sequence (Q8IVJ1 whole entry, the tested form may be a part): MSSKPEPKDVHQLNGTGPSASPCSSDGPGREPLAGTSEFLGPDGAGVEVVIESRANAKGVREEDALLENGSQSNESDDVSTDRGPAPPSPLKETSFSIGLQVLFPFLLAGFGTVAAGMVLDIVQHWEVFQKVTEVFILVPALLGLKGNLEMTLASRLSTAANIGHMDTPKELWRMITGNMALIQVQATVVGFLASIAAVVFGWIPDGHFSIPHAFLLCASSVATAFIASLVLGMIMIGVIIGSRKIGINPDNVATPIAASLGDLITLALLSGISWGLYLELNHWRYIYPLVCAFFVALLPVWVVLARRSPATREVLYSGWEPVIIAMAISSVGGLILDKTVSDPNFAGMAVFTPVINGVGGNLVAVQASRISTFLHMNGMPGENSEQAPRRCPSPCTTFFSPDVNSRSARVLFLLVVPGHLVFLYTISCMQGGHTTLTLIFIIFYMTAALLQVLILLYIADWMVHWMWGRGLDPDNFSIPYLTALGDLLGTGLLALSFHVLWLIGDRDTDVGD

clones identified with interaction with SLC41A1 (split-ubiquitin screening): Ten
B1: B-cell receptor-associated protein 31 OS = Homo sapiens: SLC41A1 complex-forming partner from split-ubiquitin screen; GN = BCAP31 (protein)
chain: MSLQWTAVATFLYAEVFVVLLLCIPFISPKRWQKIFKSRLVELLVSYGNTFFVVLIVILVLLVIDAVREIRKYDDVTEKVNLQNNPGAMEHFHMKLFRAQRNLYIAGFSLLLSFLLRRLVTLISQQATLLASNEAFKKQAESASEAAKKYMEENDQLKKGAAVDGGKLDVGNAEVKLEEENRSLKADLQKLKDELASTKQKLEKAENQVLAMRKQSEGLTKEYDRLLEEHAKLQAAVDGPMDKKEE

occurrence: 2
B2: Protein YIPF6 OS = Homo sapiens: SLC41A1 complex-forming partner from split-ubiquitin screen; GN = YIPF6 (protein, UniProt Q96EC8 2-236, looked up)
Protein YIPF6: AEAEESPGDPGTASPRPLFAGLSDISISQDIPVEGEITIPMRSRIREFDSSTLNESVRNTIMRDLKAVGKKFMHVLYPRKSNTLLRDWDLWGPLILCVTLALMLQRDSADSEKDGGPQFAEVFVIVWFGAVTITLNSKLLGGNISFFQSLCVLGYCILPLTVAMLICRLVLLADPGPVNFMVRLFVVIVMFAWSIVASTAFLADSQPPNRRALAVYPVFLFYFVISWMILTFTPQ

occurrence: 1
B3: 3-beta-hydroxysteroid-Delta(8), Delta(7)-isomerase OS = Rattus norvegicus: SLC41A1 complex-forming partner from split-ubiquitin screen; GN = Ebp (protein, UniProt Q9JJ46 2-230, looked up)
3-beta-hydroxysteroid-Delta(8) …: TTNMLPLHPYWPRHLRLDNFVPNDLPTWHILVGLFSFSGVLIVITWLLSSRVSVVPLGTGRRLALCWFAVCTFIHLVIEGWFSFYHEILLEDQAFLSQLWKEYSKGDSRYILSDGFIVCMESVTACLWGPLSLWVVIAFLRHQPFRFVLQLVVSVGQIYGDVLYFLTELRDGFQHGELGHPLYFWFYFVIMNAIWLVIPGILVFDAIKHLTNAQSMLDNKVMKIKSKHN

From patent publication US20130174289A1, “Na+/Mg2+ Exchanger” (FBN - Leibnitz-Institut fur Nutztierbiologie, priority 2010, published 2013)
